Tests used:
[1] = target: FGFR3 (UniProt P22607); test: phosphorylation enrichment, bacterial display (enrichment ratio); higher = better substrate or ligand; peptides without Tyr show the background
[2] = target: MERTK (UniProt Q12866); test: as above
[3] = target: Hck (UniProt P08631); test: as above
[4] = target: Fes (UniProt P07332); test: as above
[5] = target: Fyn (UniProt P06241); test: as above
[6] = test system: Fer (mouse); test: as above
[7] = test system: c-Abl (mouse); test: as above
[8] = target: EPHB1 (UniProt P54762); test: as above
[9] = test system: AncSZ; test: as above
[10] = target: Jak2 (UniProt O60674); test: as above
[11] = test system: c-Src; test: as above
[12] = target: FGFR1 (UniProt P11362); test: as above
[13] = target: EPHB2 (UniProt P29323); test: as above
[14] = target: Grb2 SH2 (UniProt P62993); test: SH2 binding enrichment of the phosphorylated peptide, bacterial display (enrichment ratio); higher = better substrate or ligand; peptides without Tyr show the background
[15] = target: c-Src SH2; test: as above
[16] = target: SHP2-C SH2; test: as above
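For SH2 binding enrichment of the phosphorylated peptide, bacterial display in this document: peptide library displayed on the E. coli surface as eCPX fusions, selected cells deep-sequenced, score is each peptide's frequency after selection divided by its frequency in the input.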
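For phosphorylation enrichment, bacterial display in this document: 11-residue human phosphosite peptides and single-mutation variants displayed on the E. coli surface, counted by deep sequencing, each peptide's frequency after selection divided by its frequency in the unselected input library; frequency after pTyr selection over input frequency; kinase dosed for 20-30% of maximal phosphorylation in three min.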

Chain of Jak2 (O60674 whole entry, looked up): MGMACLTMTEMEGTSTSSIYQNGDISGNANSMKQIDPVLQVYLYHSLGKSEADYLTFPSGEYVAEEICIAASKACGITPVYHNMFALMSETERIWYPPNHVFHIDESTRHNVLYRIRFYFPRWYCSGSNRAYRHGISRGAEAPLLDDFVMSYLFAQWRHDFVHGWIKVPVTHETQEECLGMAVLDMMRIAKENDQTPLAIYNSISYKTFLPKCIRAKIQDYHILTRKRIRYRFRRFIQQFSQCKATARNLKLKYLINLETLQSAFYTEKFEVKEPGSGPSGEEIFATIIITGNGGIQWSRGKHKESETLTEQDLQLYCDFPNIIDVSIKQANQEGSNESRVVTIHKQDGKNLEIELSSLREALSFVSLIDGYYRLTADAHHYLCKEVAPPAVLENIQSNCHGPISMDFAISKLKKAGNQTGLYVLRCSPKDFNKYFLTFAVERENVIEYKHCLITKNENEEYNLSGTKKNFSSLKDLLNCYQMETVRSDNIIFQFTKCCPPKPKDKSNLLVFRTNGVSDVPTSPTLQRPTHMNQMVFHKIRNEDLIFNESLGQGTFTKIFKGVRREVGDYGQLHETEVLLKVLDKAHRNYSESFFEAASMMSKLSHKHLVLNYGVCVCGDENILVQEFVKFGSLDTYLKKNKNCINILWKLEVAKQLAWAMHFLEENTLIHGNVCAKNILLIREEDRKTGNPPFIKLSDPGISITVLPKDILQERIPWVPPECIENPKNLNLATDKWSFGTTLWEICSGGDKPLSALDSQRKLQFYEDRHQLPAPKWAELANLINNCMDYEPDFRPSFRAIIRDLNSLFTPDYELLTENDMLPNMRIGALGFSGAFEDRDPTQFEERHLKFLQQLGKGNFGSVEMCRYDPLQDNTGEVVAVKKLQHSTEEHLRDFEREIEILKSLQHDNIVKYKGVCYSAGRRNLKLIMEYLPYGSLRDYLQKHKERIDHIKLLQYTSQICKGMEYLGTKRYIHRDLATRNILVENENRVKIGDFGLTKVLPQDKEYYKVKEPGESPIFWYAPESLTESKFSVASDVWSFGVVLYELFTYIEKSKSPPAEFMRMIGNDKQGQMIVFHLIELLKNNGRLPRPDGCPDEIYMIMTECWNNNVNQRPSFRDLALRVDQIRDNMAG
Chain of FGFR3 (P22607 whole entry, looked up): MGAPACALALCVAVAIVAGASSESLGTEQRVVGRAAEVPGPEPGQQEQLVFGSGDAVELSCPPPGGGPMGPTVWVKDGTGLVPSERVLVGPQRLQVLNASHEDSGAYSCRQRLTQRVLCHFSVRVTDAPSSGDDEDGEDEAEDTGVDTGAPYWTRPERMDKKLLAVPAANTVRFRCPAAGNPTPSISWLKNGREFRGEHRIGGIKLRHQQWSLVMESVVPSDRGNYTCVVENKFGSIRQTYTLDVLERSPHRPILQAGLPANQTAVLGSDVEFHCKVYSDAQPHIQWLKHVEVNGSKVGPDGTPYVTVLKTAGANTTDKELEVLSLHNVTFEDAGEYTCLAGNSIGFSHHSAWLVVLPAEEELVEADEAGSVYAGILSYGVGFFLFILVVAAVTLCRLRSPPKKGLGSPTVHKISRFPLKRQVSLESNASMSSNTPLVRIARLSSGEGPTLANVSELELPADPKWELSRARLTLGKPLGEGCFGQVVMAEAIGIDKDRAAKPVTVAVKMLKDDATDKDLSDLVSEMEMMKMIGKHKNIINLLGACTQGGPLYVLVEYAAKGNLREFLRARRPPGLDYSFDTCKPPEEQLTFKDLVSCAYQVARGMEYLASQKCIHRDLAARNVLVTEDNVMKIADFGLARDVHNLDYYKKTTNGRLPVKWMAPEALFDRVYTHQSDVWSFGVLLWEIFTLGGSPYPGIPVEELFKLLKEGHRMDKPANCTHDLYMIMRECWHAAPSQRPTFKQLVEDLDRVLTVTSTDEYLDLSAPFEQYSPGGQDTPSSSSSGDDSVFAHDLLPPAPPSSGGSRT
Chain of EPHB1 (P54762 whole entry, looked up): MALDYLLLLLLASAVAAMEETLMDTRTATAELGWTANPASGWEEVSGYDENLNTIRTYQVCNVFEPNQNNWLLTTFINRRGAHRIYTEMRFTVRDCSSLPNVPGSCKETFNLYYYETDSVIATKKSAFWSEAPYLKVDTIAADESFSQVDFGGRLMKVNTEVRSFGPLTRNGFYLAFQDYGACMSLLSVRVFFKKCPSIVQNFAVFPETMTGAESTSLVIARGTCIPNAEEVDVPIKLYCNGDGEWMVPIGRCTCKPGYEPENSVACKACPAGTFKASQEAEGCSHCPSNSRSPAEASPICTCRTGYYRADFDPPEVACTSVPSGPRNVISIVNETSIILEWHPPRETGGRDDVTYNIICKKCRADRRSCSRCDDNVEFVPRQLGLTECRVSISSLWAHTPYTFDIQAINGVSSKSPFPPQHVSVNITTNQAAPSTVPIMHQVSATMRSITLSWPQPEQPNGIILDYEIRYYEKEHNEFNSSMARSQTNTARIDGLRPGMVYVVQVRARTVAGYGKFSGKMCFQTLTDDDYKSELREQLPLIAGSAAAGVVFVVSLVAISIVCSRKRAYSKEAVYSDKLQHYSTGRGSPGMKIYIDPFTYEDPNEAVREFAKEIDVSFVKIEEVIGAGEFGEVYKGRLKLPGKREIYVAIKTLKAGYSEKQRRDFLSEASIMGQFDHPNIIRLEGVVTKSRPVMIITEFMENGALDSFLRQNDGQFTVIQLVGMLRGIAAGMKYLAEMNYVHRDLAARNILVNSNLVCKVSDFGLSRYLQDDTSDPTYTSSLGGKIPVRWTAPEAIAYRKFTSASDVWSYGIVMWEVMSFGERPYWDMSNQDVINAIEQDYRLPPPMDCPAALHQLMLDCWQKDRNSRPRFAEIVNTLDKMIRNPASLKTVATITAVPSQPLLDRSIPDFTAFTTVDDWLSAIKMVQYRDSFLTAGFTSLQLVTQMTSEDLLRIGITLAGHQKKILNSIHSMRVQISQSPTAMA
Chain of Fyn (P06241 whole entry, looked up): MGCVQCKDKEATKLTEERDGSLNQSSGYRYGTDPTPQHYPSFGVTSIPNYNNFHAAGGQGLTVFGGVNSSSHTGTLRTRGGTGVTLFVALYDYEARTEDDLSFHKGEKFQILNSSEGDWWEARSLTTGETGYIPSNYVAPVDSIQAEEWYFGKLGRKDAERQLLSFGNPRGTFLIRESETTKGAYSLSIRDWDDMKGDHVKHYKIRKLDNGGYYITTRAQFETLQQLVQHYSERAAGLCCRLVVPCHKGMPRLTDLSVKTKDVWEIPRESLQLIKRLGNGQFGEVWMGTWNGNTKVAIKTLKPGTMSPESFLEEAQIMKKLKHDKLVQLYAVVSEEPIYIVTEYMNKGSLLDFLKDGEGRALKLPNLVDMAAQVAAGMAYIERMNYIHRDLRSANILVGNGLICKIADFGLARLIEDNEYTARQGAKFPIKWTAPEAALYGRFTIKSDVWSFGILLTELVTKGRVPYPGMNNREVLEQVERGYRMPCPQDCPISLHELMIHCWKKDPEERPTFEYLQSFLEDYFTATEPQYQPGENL
Chain of Fes (P07332 whole entry, looked up): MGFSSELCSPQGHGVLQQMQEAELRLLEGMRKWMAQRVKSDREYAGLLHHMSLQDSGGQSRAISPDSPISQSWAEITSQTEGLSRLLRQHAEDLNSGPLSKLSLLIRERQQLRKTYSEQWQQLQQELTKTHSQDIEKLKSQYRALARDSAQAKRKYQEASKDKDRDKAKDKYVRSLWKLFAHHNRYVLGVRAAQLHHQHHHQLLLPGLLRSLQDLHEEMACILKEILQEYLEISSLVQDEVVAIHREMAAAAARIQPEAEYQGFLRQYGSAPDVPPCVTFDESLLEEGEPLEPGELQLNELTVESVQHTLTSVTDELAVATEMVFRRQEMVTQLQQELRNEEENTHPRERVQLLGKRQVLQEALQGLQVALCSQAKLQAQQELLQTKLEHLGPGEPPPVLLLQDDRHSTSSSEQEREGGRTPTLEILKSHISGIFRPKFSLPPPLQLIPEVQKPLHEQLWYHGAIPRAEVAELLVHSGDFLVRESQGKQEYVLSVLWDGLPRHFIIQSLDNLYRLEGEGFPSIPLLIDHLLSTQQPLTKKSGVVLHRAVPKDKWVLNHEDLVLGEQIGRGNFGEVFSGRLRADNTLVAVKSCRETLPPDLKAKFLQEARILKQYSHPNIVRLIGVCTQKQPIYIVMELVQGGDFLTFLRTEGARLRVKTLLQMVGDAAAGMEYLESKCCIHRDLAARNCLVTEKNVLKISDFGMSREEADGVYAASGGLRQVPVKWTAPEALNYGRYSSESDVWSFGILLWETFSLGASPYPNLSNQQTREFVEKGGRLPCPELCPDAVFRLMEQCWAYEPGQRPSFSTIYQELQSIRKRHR
Chain of Grb2 SH2 (P62993 whole entry, looked up): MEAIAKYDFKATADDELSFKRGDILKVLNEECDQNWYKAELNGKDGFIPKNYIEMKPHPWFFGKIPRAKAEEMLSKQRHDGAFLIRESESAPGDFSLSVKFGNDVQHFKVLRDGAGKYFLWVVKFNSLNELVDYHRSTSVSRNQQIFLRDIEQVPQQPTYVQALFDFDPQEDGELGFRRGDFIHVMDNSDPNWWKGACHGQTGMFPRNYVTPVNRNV
Chain of Hck (P08631 whole entry, looked up): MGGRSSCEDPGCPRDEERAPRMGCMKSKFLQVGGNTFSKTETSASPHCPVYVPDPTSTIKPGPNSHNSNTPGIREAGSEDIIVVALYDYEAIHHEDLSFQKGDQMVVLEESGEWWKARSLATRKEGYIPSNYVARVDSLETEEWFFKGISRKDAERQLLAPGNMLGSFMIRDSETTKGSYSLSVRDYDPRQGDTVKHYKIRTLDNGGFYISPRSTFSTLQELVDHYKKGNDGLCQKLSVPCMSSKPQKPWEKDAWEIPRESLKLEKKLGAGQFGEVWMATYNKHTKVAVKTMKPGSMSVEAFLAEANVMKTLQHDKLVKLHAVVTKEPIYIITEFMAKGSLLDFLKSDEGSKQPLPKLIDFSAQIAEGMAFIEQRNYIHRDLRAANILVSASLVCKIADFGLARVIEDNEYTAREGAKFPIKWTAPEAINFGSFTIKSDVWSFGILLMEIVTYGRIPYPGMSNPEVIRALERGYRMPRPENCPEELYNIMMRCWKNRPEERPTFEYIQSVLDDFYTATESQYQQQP

Sequence: NYDLDYDSVQP [MYC_Y16]
- phosphorylation enrichment [1]: 1.03
- phosphorylation enrichment [2]: 0.493
- phosphorylation enrichment [3]: 0.78
- phosphorylation enrichment [4]: 1.63
- phosphorylation enrichment [5]: 0.659
- phosphorylation enrichment [6]: 1.09
- phosphorylation enrichment [7]: 1.02
- phosphorylation enrichment [8]: 1.19
- phosphorylation enrichment [9]: 3.13
- phosphorylation enrichment [10]: 1.39
- phosphorylation enrichment [11]: 1.18
- phosphorylation enrichment [12]: 0.74
- phosphorylation enrichment [13]: 1.96
- SH2 binding enrichment [14]: 0.804
- SH2 binding enrichment [15]: 1.26
- SH2 binding enrichment [16]: 0.532

Sequence: PADCRYFAFPQ [GAMT_Y222_YF]
- phosphorylation enrichment [1]: 1.78
- phosphorylation enrichment [2]: 5.65
- phosphorylation enrichment [3]: 0.733
- phosphorylation enrichment [4]: 0.99
- phosphorylation enrichment [5]: 0.817
- phosphorylation enrichment [6]: 0.636
- phosphorylation enrichment [7]: 0.752
- phosphorylation enrichment [8]: 1.29
- phosphorylation enrichment [9]: 1.35
- phosphorylation enrichment [10]: 2.66
- phosphorylation enrichment [11]: 1.43
- phosphorylation enrichment [12]: 2.35
- phosphorylation enrichment [13]: 0.959
- SH2 binding enrichment [14]: 0.818
- SH2 binding enrichment [15]: 1.26
- SH2 binding enrichment [16]: 1.18

Sequence: PADCRYYTFPQ [GAMT_Y222_A224T]
- phosphorylation enrichment [1]: 5
- phosphorylation enrichment [2]: 11
- phosphorylation enrichment [3]: 2.64
- phosphorylation enrichment [4]: 2.01
- phosphorylation enrichment [5]: 2.82
- phosphorylation enrichment [6]: 4.15
- phosphorylation enrichment [7]: 1.7
- phosphorylation enrichment [8]: 3.34
- phosphorylation enrichment [9]: 4.04
- phosphorylation enrichment [10]: 4.4
- phosphorylation enrichment [11]: 5.45
- phosphorylation enrichment [12]: 6
- phosphorylation enrichment [13]: 2.18
- SH2 binding enrichment [14]: 1.01
- SH2 binding enrichment [15]: 2.15
- SH2 binding enrichment [16]: 1.36

Sequence: PARLEYYENEK [IRS1_Y46]
- phosphorylation enrichment [1]: 0.882
- phosphorylation enrichment [2]: 0.547
- phosphorylation enrichment [3]: 0.48
- phosphorylation enrichment [4]: 1.26
- phosphorylation enrichment [5]: 0.732
- phosphorylation enrichment [6]: 0.25
- phosphorylation enrichment [7]: 0.725
- phosphorylation enrichment [8]: 0.613
- phosphorylation enrichment [9]: 1.26
- phosphorylation enrichment [10]: 1.17
- phosphorylation enrichment [11]: 0.711
- phosphorylation enrichment [12]: 0.533
- phosphorylation enrichment [13]: 0.723
- SH2 binding enrichment [14]: 3.84
- SH2 binding enrichment [15]: 18.6
- SH2 binding enrichment [16]: 1.35

Sequence: PEADKYRLPFA [FGG_Y300_T303P_YF]
- phosphorylation enrichment [1]: 0.657
- phosphorylation enrichment [2]: 0.442
- phosphorylation enrichment [3]: 0.648
- phosphorylation enrichment [4]: 0.717
- phosphorylation enrichment [5]: 0.614
- phosphorylation enrichment [6]: 0.512
- phosphorylation enrichment [7]: 0.634
- phosphorylation enrichment [8]: 0.61
- phosphorylation enrichment [9]: 0.988
- phosphorylation enrichment [10]: 0.731
- phosphorylation enrichment [11]: 0.614
- phosphorylation enrichment [12]: 0.544
- phosphorylation enrichment [13]: 0.645
- SH2 binding enrichment [14]: 0.821
- SH2 binding enrichment [15]: 0.423
- SH2 binding enrichment [16]: 0.517

Sequence: PELINYHQHNF [BTK_Y361_S366F]
- phosphorylation enrichment [1]: 0.598
- phosphorylation enrichment [2]: 0.696
- phosphorylation enrichment [3]: 0.836
- phosphorylation enrichment [4]: 1.25
- phosphorylation enrichment [5]: 0.789
- phosphorylation enrichment [6]: 0.736
- phosphorylation enrichment [7]: 0.919
- phosphorylation enrichment [8]: 0.631
- phosphorylation enrichment [9]: 1.04
- phosphorylation enrichment [10]: 1.02
- phosphorylation enrichment [11]: 0.942
- phosphorylation enrichment [12]: 0.851
- phosphorylation enrichment [13]: 0.826
- SH2 binding enrichment [14]: 1.03
- SH2 binding enrichment [15]: 0.434
- SH2 binding enrichment [16]: 0.716

Sequence: PELINYQQHNS [BTK_Y361_H362Q]
- phosphorylation enrichment [1]: 0.79
- phosphorylation enrichment [2]: 0.988
- phosphorylation enrichment [3]: 1.25
- phosphorylation enrichment [4]: 1.38
- phosphorylation enrichment [5]: 0.829
- phosphorylation enrichment [6]: 0.742
- phosphorylation enrichment [7]: 1.22
- phosphorylation enrichment [8]: 0.79
- phosphorylation enrichment [9]: 1.1
- phosphorylation enrichment [10]: 1.52
- phosphorylation enrichment [11]: 0.969
- phosphorylation enrichment [12]: 0.763
- phosphorylation enrichment [13]: 0.821
- SH2 binding enrichment [14]: 0.753
- SH2 binding enrichment [15]: 0.491
- SH2 binding enrichment [16]: 0.732

Sequence: PESIMYRKFTT [NTRK3_Y744]
- phosphorylation enrichment [1]: 0.667
- phosphorylation enrichment [2]: 0.616
- phosphorylation enrichment [3]: 0.517
- phosphorylation enrichment [4]: 0.789
- phosphorylation enrichment [5]: 0.67
- phosphorylation enrichment [6]: 0.485
- phosphorylation enrichment [7]: 0.777
- phosphorylation enrichment [8]: 0.534
- phosphorylation enrichment [9]: 3.03
- phosphorylation enrichment [10]: 0.666
- phosphorylation enrichment [11]: 0.488
- phosphorylation enrichment [12]: 0.384
- phosphorylation enrichment [13]: 0.552
- SH2 binding enrichment [14]: 1.05
- SH2 binding enrichment [15]: 0.6
- SH2 binding enrichment [16]: 0.494

Sequence: PEVRRHVLPLN [RPE65_Y368_Y368H]
- phosphorylation enrichment [1]: 1.03
- phosphorylation enrichment [2]: 0.669
- phosphorylation enrichment [3]: 0.894
- phosphorylation enrichment [4]: 1.61
- phosphorylation enrichment [5]: 0.587
- phosphorylation enrichment [6]: 0.843
- phosphorylation enrichment [7]: 1.73
- phosphorylation enrichment [8]: 0.849
- phosphorylation enrichment [9]: 1.35
- phosphorylation enrichment [10]: 1.57
- phosphorylation enrichment [11]: 0.661
- phosphorylation enrichment [12]: 0.707
- phosphorylation enrichment [13]: 0.886
- SH2 binding enrichment [14]: 0.834
- SH2 binding enrichment [15]: 0.663
- SH2 binding enrichment [16]: 0.391

Sequence: PFTRNYYVQAV [CYBA_Y87_R90Q]
- phosphorylation enrichment [1]: 1.9
- phosphorylation enrichment [2]: 1.25
- phosphorylation enrichment [3]: 0.446
- phosphorylation enrichment [4]: 1.1
- phosphorylation enrichment [5]: 0.46
- phosphorylation enrichment [6]: 0.555
- phosphorylation enrichment [7]: 1.12
- phosphorylation enrichment [8]: 0.787
- phosphorylation enrichment [9]: 1.03
- phosphorylation enrichment [10]: 1.17
- phosphorylation enrichment [11]: 0.615
- phosphorylation enrichment [12]: 1.99
- phosphorylation enrichment [13]: 0.706
- SH2 binding enrichment [14]: 0.981
- SH2 binding enrichment [15]: 1.19
- SH2 binding enrichment [16]: 3.28

Sequence: PGQRVYVVAER [SHH_Y316]
- phosphorylation enrichment [1]: 0.524
- phosphorylation enrichment [2]: 0.447
- phosphorylation enrichment [3]: 0.57
- phosphorylation enrichment [4]: 0.91
- phosphorylation enrichment [5]: 0.395
- phosphorylation enrichment [6]: 0.494
- phosphorylation enrichment [7]: 0.503
- phosphorylation enrichment [8]: 0.63
- phosphorylation enrichment [9]: 0.883
- phosphorylation enrichment [10]: 0.556
- phosphorylation enrichment [11]: 0.464
- phosphorylation enrichment [12]: 0.522
- phosphorylation enrichment [13]: 0.537
- SH2 binding enrichment [14]: 0.879
- SH2 binding enrichment [15]: 0.665
- SH2 binding enrichment [16]: 0.586

Sequence: PGRRFYVVACD [RNASE3_Y134]
- phosphorylation enrichment [1]: 0.916
- phosphorylation enrichment [2]: 1.22
- phosphorylation enrichment [3]: 0.733
- phosphorylation enrichment [4]: 1.65
- phosphorylation enrichment [5]: 0.389
- phosphorylation enrichment [6]: 0.52
- phosphorylation enrichment [7]: 1.24
- phosphorylation enrichment [8]: 0.536
- phosphorylation enrichment [9]: 1.43
- phosphorylation enrichment [10]: 2.05
- phosphorylation enrichment [11]: 2.16
- phosphorylation enrichment [12]: 0.654
- phosphorylation enrichment [13]: 1.19
- SH2 binding enrichment [14]: 1.05
- SH2 binding enrichment [15]: 0.849
- SH2 binding enrichment [16]: 0.569

Sequence: PIDLFYLMDLS [ITGB2_Y131_YF]
- phosphorylation enrichment [1]: 1.13
- phosphorylation enrichment [2]: 0.728
- phosphorylation enrichment [3]: 0.771
- phosphorylation enrichment [4]: 1.99
- phosphorylation enrichment [5]: 0.599
- phosphorylation enrichment [6]: 0.426
- phosphorylation enrichment [7]: 0.98
- phosphorylation enrichment [8]: 0.737
- phosphorylation enrichment [9]: 1.61
- phosphorylation enrichment [10]: 1.22
- phosphorylation enrichment [11]: 1.52
- phosphorylation enrichment [12]: 0.633
- phosphorylation enrichment [13]: 0.559
- SH2 binding enrichment [14]: 0.957
- SH2 binding enrichment [15]: 0.524
- SH2 binding enrichment [16]: 0.88

Sequence: PIFLFYLMDLS [ITGB2_Y131_D128Y_YF]
- phosphorylation enrichment [1]: 1.31
- phosphorylation enrichment [2]: 0.914
- phosphorylation enrichment [3]: 0.95
- phosphorylation enrichment [4]: 3.28
- phosphorylation enrichment [5]: 0.613
- phosphorylation enrichment [6]: 1.24
- phosphorylation enrichment [7]: 1.91
- phosphorylation enrichment [8]: 2.51
- phosphorylation enrichment [9]: 2.78
- phosphorylation enrichment [10]: 3.98
- phosphorylation enrichment [11]: 1.12
- phosphorylation enrichment [12]: 0.702
- phosphorylation enrichment [13]: 1.01
- SH2 binding enrichment [14]: 0.61
- SH2 binding enrichment [15]: 0.567
- SH2 binding enrichment [16]: 0.874

Sequence: PIPIKYKAMKK [MYD88_Y257_L252P]
- phosphorylation enrichment [1]: 0.858
- phosphorylation enrichment [2]: 0.382
- phosphorylation enrichment [3]: 0.582
- phosphorylation enrichment [4]: 0.72
- phosphorylation enrichment [5]: 0.5
- phosphorylation enrichment [6]: 0.336
- phosphorylation enrichment [7]: 0.642
- phosphorylation enrichment [8]: 0.407
- phosphorylation enrichment [9]: 0.677
- phosphorylation enrichment [10]: 0.665
- phosphorylation enrichment [11]: 0.534
- phosphorylation enrichment [12]: 0.383
- phosphorylation enrichment [13]: 0.495
- SH2 binding enrichment [14]: 1.32
- SH2 binding enrichment [15]: 0.822
- SH2 binding enrichment [16]: 1.1

Sequence: PLDGESFTLQI [TP53_Y327_Y327S]
- phosphorylation enrichment [1]: 1.05
- phosphorylation enrichment [2]: 0.549
- phosphorylation enrichment [3]: 0.619
- phosphorylation enrichment [4]: 1.67
- phosphorylation enrichment [5]: 0.569
- phosphorylation enrichment [6]: 0.552
- phosphorylation enrichment [7]: 1.23
- phosphorylation enrichment [8]: 0.731
- phosphorylation enrichment [9]: 1.64
- phosphorylation enrichment [10]: 1.26
- phosphorylation enrichment [11]: 0.616
- phosphorylation enrichment [12]: 0.634
- phosphorylation enrichment [13]: 0.93
- SH2 binding enrichment [14]: 0.663
- SH2 binding enrichment [15]: 0.422
- SH2 binding enrichment [16]: 0.706
